In the supplement of paper PMC10567573:
± gives the standard deviation.

Assay: protein stability index of a GFP-peptide fusion (GPS, HEK-293T) (PSI 1-6); higher = more stable
Conditions: c terminus: a fixed tail appended
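Note: 24-mer peptide tiles fused after GFP, lentivirally expressed, FACS-sorted into six equal bins by GFP/DsRed ratio, decoded by Illumina sequencing, PSI is the read-weighted mean bin number.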

Sequence | protein stability index (treatment: DMSO) | protein stability index (treatment: MLN4924 1 uM, 8 h)
KYELMRPSNKAPLLVLCEDHRGRM [EHMT1] | 2.57 ± 0.28 | 2.78 ± 0.26
KYPGPQAEGDSEGLSQGLVDREKG [CHGA] | 5.32 ± 0.3 | 5.36 ± 0.12
LAAGSAVFDAMFNGGMATTSAEIE [BTBD1] | 3.72 ± 0.35 | 3.75 ± 0.29
LAAKALLDQKKQDPRVQDFLQRCL [NET1] | 2.28 ± 0.31 | 2.42 ± 0.25
LAFLDKIKSVKESLQESVEDSLAT [IQUB] | 4.03 ± 0.45 | 3.77 ± 0.69
LALGPILRLYKHNSQALLLHSSIL [MFSD9] | 3.12 ± 0.78 | 2.59 ± 0.37
LALLPAAWEDSHGSQDGHFVLSCS [SCNN1D] | 2.92 ± 0.083 | 2.9 ± 0.34
LAPPPLPLPAAAVVHVSFPEVTSA [ZBTB22] | 3.3 ± 0.3 | 3.73 ± 0.55
LAVAGGPRKTAAPVNALVSHLLVV [ESRRA] | 2.92 ± 0.61 | 2.85 ± 0.55
LCSPGHERRGTPADTEEPTKDPDV [PSD2] | 5.66 ± 0.19 | 5.43 ± 0.26
LDADAAQRVVYLEGCGPPLRRWLR [TSPAN10] | 2.69 ± 0.2 | 2.99 ± 0.14
LDASGEKMNGSHRDQGSSALSGVG [IKZF1] | 4.97 ± 0.51 | 5.05 ± 0.3
LDFLHSANFSLGSINQRLNKRERS [RNF180] | 3.69 ± 0.24 | 3.86 ± 0.4
LDLSKPNDLWPTMENLLQATKSHV [DYNC2LI1] | 3.06 ± 0.28 | 3 ± 0.19
LDYYKTGIIRCPDGISIPELREAC [BTBD10] | 2.42 ± 0.34 | 2.5 ± 0.38
LEDGFYLTAFICFLVFILNAGLVW [MFSD9] | 3.23 ± 0.84 | 2.73 ± 0.95
LEEDLKEVLRSEAGIELIIEDDIR [MYBL2] | 4.66 ± 0.35 | 4.68 ± 0.39
LEFAYYFRPGHLLANACLPVRTTN [ZSWIM9] | 2.47 ± 0.67 | 2.25 ± 0.28
LEGWRPDQLYRRKKDNHALVRETD [ELOA2] | 4.45 ± 0.16 | 4.57 ± 0.12
LEIPVETITSEVIEKCTTPLSDDH [CRY1] | 4.8 ± 0.23 | 5.02 ± 0.3
LELAQFHNAHQLAAWCLHHICTNY [RHOBTB1] | 2.7 ± 0.48 | 2.59 ± 0.43
LEQMGALAVRGSRRERELERRELA [ZBED3] | 5 ± 0.37 | 4.76 ± 0.34
LESLPTDPLLLILSFLDYRDLINC [FBXO3] | 2.84 ± 0.61 | 2.85 ± 0.64

Sequence | protein stability index (treatment: DMSO) | protein stability index (treatment: MLN4924 1 uM, 8 h)
LETLPEFRDEKDYPASTSQDSFEA [KCNA3] | 5.38 ± 0.37 | 5.41 ± 0.2
LEVINLLRKHRELCDVVLVVGAKK [KLHL20] | 2.37 ± 0.48 | 2.41 ± 0.34
LEYLYTDSCCPAGIFQAMCLLICA [RHOBTB3] | 3.08 ± 0.45 | 3.19 ± 0.55
LFEEPEDPSNRSFFSEIISSVSDV [PPP2R2C] | 4.24 ± 0.057 | 4.19 ± 0.19
LFLKDVLGDEICCWSFYGQGRKIA [KCTD13] | 2.64 ± 0.42 | 2.07 ± 0.55
LFSELAEDKENYKKFYEAFSKNLK [HSP90AB1] | 2.83 ± 0.23 | 3.62 ± 0.17
LFVIRGQPADVFPRLFKEWNITKL [CRY1] | 2.18 ± 0.29 | 2.24 ± 0.32
LGCNRQSWCLKRYDLEYWAFHDGQ [TRIM14] | 2.5 ± 0.34 | 2.34 ± 0.38
LGHREPSAHPVEVFSFDLHEPLSK [TMEM175] | 3.92 ± 0.16 | 4.17 ± 0.28
LGHSPVLRNITNSQAPDGRRKSEA [CDC25B] | 3.77 ± 0.4 | 4.22 ± 0.48
LGIPYYETSVVAQFGIKDVFDNAI [RHOBTB2] | 2.17 ± 0.18 | 2.14 ± 0.23
LGLFTLILTEPAQAQKCYRDLALV [INTS3] | 3.14 ± 0.36 | 2.79 ± 0.35
LGNGLLRKKTLVPGPPGSSRPVKG [FKBP8] | 3.94 ± 0.12 | 4.05 ± 0.47
LGPPLVRKRIHDSRVAGFNPALQL [TOR1AIP2] | 3.07 ± 0.28 | 3.03 ± 0.26
LGTELAERQGNGQQAMSLAILRVI [KCNA3] | 2.42 ± 0.19 | 2.52 ± 0.12
LGVFLDYEAGVLAFYDVTGGMSHL [TRIM14] | 2.83 ± 0.5 | 2.98 ± 0.82
LGVQTGGPGGRRAGEPGHSPADYL [DYRK1B] | 4.34 ± 0.38 | 4.3 ± 0.31
LHMSQRERTWPPPAMSPYWRTWMT [C22orf15] | 2.31 ± 0.24 | 2.56 ± 0.37
LIANIVHDGKPSEGSYRIHVLHHG [USP39] | 2.21 ± 0.2 | 2.19 ± 0.25
LIFLSNFPFSLLGLLALAIGLWGL [TSPAN10] | 3.21 ± 0.27 | 2.93 ± 0.25
LIPKTWYSAEQFCVSRNSHLTSVT [CD207] | 2.17 ± 0.32 | 2.19 ± 0.28
LITKNHSQEETSILRCWKCRKCIA [RNF180] | 2.48 ± 0.44 | 2.98 ± 0.58
LIVTSLLLLPGLNQHGIILKYIGM [ARL6IP1] |  | 3.15 ± 0.81

Sequence | protein stability index (treatment: DMSO) | protein stability index (treatment: MLN4924 1 uM, 8 h)
LKCEMNQMSGEPLDKLNFEAINFC [ACSBG2] | 2.92 ± 0.41 | 3.16 ± 0.31
LKDFTLNETVNSIFAQGAPRSSLA [ADAMTSL2] | 3.01 ± 0.17 | 3.26 ± 0.32
LKGYPSLMRSQSPKAQPQTWKSGK [TRIM29] | 3.88 ± 0.36 | 3.93 ± 0.22
LLAAGANVHATTATGDTALTYACE [ANKRD17] | 4.13 ± 0.2 | 3.9 ± 0.23
LLCLLHFSIVSVAAHLALLLLCGT [RTN2] | 3.19 ± 0.65 | 3.33 ± 0.3
LLLCGTISLRVYRKVLQAVHRGDG [RTN2] | 2.66 ± 0.37 | 2.36 ± 0.63
LLLLFGVAGGLVACRVTELQQQPL [LRRC59] | 2.77 ± 0.2 | 3.46 ± 0.55
LLPIVPLSWLVWLLLLLLASLLPS [ADAMTS4] | 3.04 ± 0.33 | 3.17 ± 0.51
LLSKYCGYREDNIPQLEDVSNFLK [TPH1] | 2.41 ± 0.59 | 2.61 ± 0.57
LLVGGLPPGPDRLPSNLVQYYDDE [KLHL14] | 4.17 ± 0.25 | 4.04 ± 0.087
LMSSAVPMTPEDPSFWDCFCFTEE [AASDHPPT] | 3.98 ± 0.25 | 3.86 ± 0.23
LNILIQSLDWETFEQYCAWQLFLA [INTS3] | 3.04 ± 0.92 | 2.62 ± 0.12
LPEELRRLSGLSSVGHNWRKRMGT [C22orf15] | 2.99 ± 0.18 | 3.07 ± 0.22
LPESGLLSVLQIAQQDLAPDPDAW [FANCE] | 4.06 ± 0.19 | 4.01 ± 0.22
LPFVLAAAVSRKKKRRMGTYSLVP [EHMT1] | 2.34 ± 0.26 | 2.27 ± 0.24
LPPPSALKKGSKEKQADFLDKQMS [NFE2L1] | 4.89 ± 0.24 | 4.91 ± 0.29
LPQEDPSTSQGCAQPQGAPCCSSS [FEM1A] | 5.48 ± 0.12 | 5.37 ± 0.19
LQCAMEENCLSASAAQTDPTTGYR [LOXL2] | 3.59 ± 0.23 | 3.45 ± 0.29
LQDGRRKVHYLFPDGKEMAEEYDE [DPCD] | 4.7 ± 0.064 | 4.72 ± 0.37
LQQQPLCTSVNTIYDNAVQGLRRH [LRRC59] | 3.66 ± 0.091 | 3.83 ± 0.13
LQRWCRAKHMGLEPPPEVWQVLKT [POLD4] | 2.28 ± 0.056 | 2.56 ± 0.14
LQSSKNSYSFQNPSSFDPSMLLQR [RNF180] | 2.9 ± 0.27 | 3.3 ± 0.17
LQTVTREKEELLQLSIERGKVLQN [CCDC89] | 4.13 ± 0.25 | 4.42 ± 0.26

Sequence | protein stability index (treatment: DMSO) | protein stability index (treatment: MLN4924 1 uM, 8 h)
LRCKLAAFYRLADLFGWSQLIYNH [ADD1] | 2.89 ± 0.49 | 2.78 ± 0.37
LRITSGVVVCQCGLSIPSHSSELT [RPAIN] | 2.56 ± 0.65 | 2.48 ± 0.57
LRNKLRELCVKLMFLHPVDYGRKA [SMG5] | 3.21 ± 0.36 | 3.03 ± 0.51
LRYSVVEESEPGTLVGNVAQDLGL [PCDHGC5] | 3.94 ± 0.13 | 3.86 ± 0.26
LSKILAKLERLKQQNEDLRRMAES [FUT8] | 2.9 ± 0.22 | 3.12 ± 0.24
LSPEVLNKQGHGCESDIWALGCVM [PLK2] | 2.09 ± 0.15 | 2.14 ± 0.29
LSSTLLSFSTAIGRTCITDLQLTV [MFSD9] | 3.11 ± 0.17 | 3.18 ± 0.39
LSSVECLDYTADEDGVWYSVAPMN [KLHL12] | 3.59 ± 0.19 | 3.74 ± 0.48
LTCDSSTSSSDDDEEVSGSSKTIT [C18orf25] | 5.4 ± 0.26 | 5.46 ± 0.21
LTINPAKRITASEALKHPWICQRS [CAMK2D] | 2.57 ± 0.1 | 2.72 ± 0.25
LTIRESILINNGSRIKGWWVFHHY [TMEM120A] | 3.1 ± 0.7 | 2.73 ± 0.92
LTKHEWTEALGCDPPLSQDERTHR [ZNF8] | 4.6 ± 0.2 | 4.72 ± 0.17
LTLVFFVQITGQPNILFYASTVLK [SLC2A12] | 3.19 ± 0.51 | 3.5 ± 0.59
LTLYNPTGTALRFRVLCTAPAKYT [MOSPD3] | 2.79 ± 0.65 | 2.69 ± 0.48
LTVNTEAQQLLREFEEATGEAGWG [FOXJ1] | 4.55 ± 0.14 | 4.62 ± 0.073
LTWSELFVLNAAQCSMPLHVAPLL [NR2F2] | 2.98 ± 0.21 | 3.16 ± 0.32
LVLNSQQSDTLEQREEHELVHVME [RAD54B] | 4.59 ± 0.24 | 4.36 ± 0.21
LVQRQMSVIEEDLEEFQLALKHYV [NECAB1] | 2.32 ± 0.36 | 2.6 ± 0.23
LVTYTNRYIIFKRNTLNQPCSGSV [GMCL1] | 2.29 ± 0.24 | 2.07 ± 0.2
LYFATLRNRPKSTVNTHYFSIDEE [CDC14A] | 2.11 ± 0.17 | 2.15 ± 0.32
